According to patent US7211419B2, “Mutant carbamoylphosphate synthetase and method for producing compounds derived from carbamoylphosphate” (priority 2001, dated 2007):

Test system: carbamoylphosphate synthetase (CPSase)
Assay: CPSase activity in reaction of carbamoylphosphate (CP) synthesis from glutamine or ammonia, protein extracts, CP by capillary zone electrophoresis
Type: biochemical, E. coli
Description: Then, the protein extracts from these 9 clones B-6969(pEL-carAB-NN) and one clone B-6969(pEL-carAB-6) were used to evaluate the activity and fbr of mutant CPSases in reaction of carbamoylphosphate (CP) synthesis from glutamine or ammonia.
The crude cellular extracts from cells were prepared by sonication of 20 mg wet cells pellet suspended in 0.5 ml of buffer A (200 mM K2HPO4/KH2PO4, pH 8.0, 1 mM EDTA, 1 mM PMSF, 1 mM DTT) and treated with solid ammonium sulfate to achieve 65% of saturation. After incubation for 10 min at 4° C., the suspensions were centrifuged at 13,000 rpm for 10 min and the precipitates were dissolved in 1 ml of buffer B (20 mM K2HPO4/KH2PO4, pH 8.0, 50 mM KCl, 1 mM PMSF, 1 mM DTT). The aliquots of obtained protein extracts were used to evaluate the CPSase activity. The schemes of reaction were following: Gln+CO2+2MgATP+H2O→NH2COOPO3^2−+2MgADP+Glu+P1 I. NH3+CO2+[…]+H2O→NH2COOPO3^2−+2MgADP+P1 II.
The 50 μl of each reaction mixture included:
reaction I—20 mM tris-HCl, pH 8.0, 100 mM KCl, 5 mM Na2CO3, 10 mM ATP, 10 mM MgCl2, 5 mM glutamine, 10 μl of protein extract;
reaction II—20 mM tris-HCl, pH 8.0, 100 mM KCl, 5 mM Na2CO3, 10 mM ATP, 10 mM MgCl2, 200mM (NH4)2SO4, 10 μl of protein extract. […]
After incubation for 10 min at 37° C. reactions were stopped by addition of equal volume of EtOH, cooled at −20° C. for 10 min and centrifuged at 13,000 rpm for 1 min at room temperature. Supernatants were cooled at −20° C.
The CP content in reaction mixtures was analyzed by capillary zone electrophoresis. The separation was performed on a Quanta 4000E Capillary Electrophoresis System (“Waters”, USA) with UV indirect detection at 254 nm. The injection was performed by hydrostatic for 25 s. The separation was carried out with an uncoated fused-silica capillary (75 u I.D.* 60cm, effective length 53 cm) and was operated at −25 kV potential. Temperature was maintained at 20° C. The separation buffer consisted of 50 mM Tris base, 25mM benzoic acid (for indirect detection), pH 8.5, 0.25mM TTAB (tetradecyl-trimethyl-ammonium bromide) (for reversion of electroosmotic flow).

B1: clone Wt: wild type E. coli CPSase; CarB 947-951 -Leu-Ser-Val-Arg-Glu- (SEQ ID NO: 28) (protein, UniProt P0A6F1 1-382; P00968 2-1073, looked up)
Carbamoyl phosphate synthase … 1: MIKSALLVLEDGTQFHGRAIGATGSAVGEVVFNTSMTGYQEILTDPSYSRQIVTLTYPHIGNVGTNDADEESSQVHAQGLVIRDLPLIASNFRNTEDLSSYLKRHNIVAIADIDTRKLTRLLREKGAQNGCIIAGDNPDAALALEKARAFPGLNGMDLAKEVTTAEAYSWTQGSWTLTGGLPEAKKEDELPFHVVAYDFGAKRNILRMLVDRGCRLTIVPAQTSAEDVLKMNPDGIFLSNGPGDPAPCDYAITAIQKFLETDIPVFGICLGHQLLALASGAKTVKMKFGHHGGNHPVKDVEKNVVMITAQNHGFAVDEATLPANLRVTHKSLFDGTLQGIHRTDKPAFSFQGHPEASPGPHDAAPLFDHFIELIEQYRKTAK
Carbamoyl phosphate synthase … 2: PKRTDIKSILILGAGPIVIGQACEFDYSGAQACKALREEGYRVILVNSNPATIMTDPEMADATYIEPIHWEVVRKIIEKERPDAVLPTMGGQTALNCALELERQGVLEEFGVTMIGATADAIDKAEDRRRFDVAMKKIGLETARSGIAHTMEEALAVAADVGFPCIIRPSFTMGGSGGGIAYNREEFEEICARGLDLSPTKELLIDESLIGWKEYEMEVVRDKNDNCIIVCSIENFDAMGIHTGDSITVAPAQTLTDKEYQIMRNASMAVLREIGVETGGSNVQFAVNPKNGRLIVIEMNPRVSRSSALASKATGFPIAKVAAKLAVGYTLDELMNDITGGRTPASFEPSIDYVVTKIPRFNFEKFAGANDRLTTQMKSVGEVMAIGRTQQESLQKALRGLEVGATGFDPKVSLDDPEALTKIRRELKDAGADRIWYIADAFRAGLSVDGVFNLTNIDRWFLVQIEELVRLEEKVAEVGITGLNADFLRQLKRKGFADARLAKLAGVREAEIRKLRDQYDLHPVYKRVDTCAAEFATDTAYMYSTYEEECEANPSTDREKIMVLGGGPNRIGQGIEFDYCCVHASLALREDGYETIMVNCNPETVSTDYDTSDRLYFEPVTLEDVLEIVRIEKPKGVIVQYGGQTPLKLARALEAAGVPVIGTSPDAIDRAEDRERFQHAVERLKLKQPANATVTAIEMAVEKAKEIGYPLVVRPSYVLGGRAMEIVYDEADLRRYFQTAVSVSNDAPVLLDHFLDDAVEVDVDAICDGEMVLIGGIMEHIEQAGVHSGDSACSLPAYTLSQEIQDVMRQQVQKLAFELQVRGLMNVQFAVKNNEVYLIEVNPRAARTVPFVSKATGVPLAKVAARVMAGKSLAEQGVTKEVIPPYYSVKEVVLPFNKFPGVDPLLGPEMRSTGEVMGVGRTFAEAFAKAQLGSNSTMKKHGRALLSVREGDKERVVDLAAKLLKQGFELDATHGTAIVLGEAGINPRLVNKVHEGRPHIQDRIKNGEYTYIINTTSGRRAIEDSRVIRRSALQYKVHYDTTLNGGFATAMALNADATEKVISVQEMHAQIK
Activity, (CP) (Substrate: 5 mM Gln): 1350 nmol/mg/min
Activity, (CP) (Substrate: 5 mM Gln, Allosteric effector: 10 mM UMP): 170 nmol/mg/min
Activity, (CP) (Substrate: 200 mM (NH4)2SO4): 425 nmol/mg/min
